Measurements reported in patent US20110053865A1 (published 2011).

Columns and labels:
Experiment in all cases: Biacore; eBiosc hIL23
[1] = target: 123F1
[2] = target: 12A11
[3] = target: 119H1
[4] = target: 121C7
[5] = target: 119C3
[6] = target: 124H2
[7] = target: 81D1
[8] = target: 124H5
[9] = target: 119C9
[10] = target: 12D2
[11] = target: 119B3
[12] = target: 124D2
[13] = target: 124G2
[14] = target: 3D4
[15] = target: 3H5
[16] = target: 1G8
[17] = target: 3A7
[18] = target: 4F3
[19] = target: 3A10
[20] = target: 3A11
[21] = target: 3E1
[22] = target: 3C7
[23] = target: 3G9

B1: eBiosc hIL23 (ligand)
chain 1: RAVPGGSSPAWTQCQQLSQKLCTLAWSAHPLVGHMDLREEGDEETTNDVPHIQCGDGCDPQGLRDNSQFCLQRIHQGLIFYEKLLGSDIFTGEPSLLPDSPVGQLHASLLGLSQLLQPEGHHWETQQIPSLSPSQPWQRLLLRFKILRSLQAFVAVAARVFAHGAATLSP
chain 2: IWELKKDVYVVELDWYPDAPGEMVVLTCDTPEEDGITWTLDQSSEVLGSGKTLTIQVKEFGDAGQYTCHKGGEVLSHSLLLLHKKEDGIWSTDILKDQKEPKNKTFLRCEAKNYSGRFTCWWLTTISTDLTFSVKSSRGSSDPQGVTCGAATLSAERVRGDNKEYEYSVECQEDSACPAAEESLPIEVMVDAVHKLKYENYTSSFFIRDIIKPDPPKNLQLKPLKNSRQVEVSWEYPDTWSTPHSYFSLTFCVQVQGKSKREKKDRVFTDKTSATVICRKNASISVRAQDRYYSSSWSEWASVPCS
- koff [1]: 0.000377 s⁻¹
- koff [2]: 0.000134 s⁻¹
- koff [3]: 0.0106 s⁻¹
- koff [4]: 0.000112 s⁻¹
- koff [5]: 0.0334 s⁻¹
- koff [6]: 5.88e-05 s⁻¹
- koff [7]: 0.0114 s⁻¹
- koff [8]: 3.54e-05 s⁻¹
- koff [9]: 0.0012 s⁻¹
- koff [10]: 0.000125 s⁻¹
- koff [11]: 0.00015 s⁻¹
- koff [12]: 0.000103 s⁻¹
- koff [13]: 9.28e-05 s⁻¹
- koff [14]: 0.0062 s⁻¹
- koff [15]: 0.00333 s⁻¹
- koff [16]: 0.00223 s⁻¹
- koff [17]: 0.00507 s⁻¹
- koff [18]: 0.00208 s⁻¹
- koff [19]: 0.00286 s⁻¹
- koff [20]: 0.00513 s⁻¹
- koff [21]: 0.00866 s⁻¹
- koff [22]: 0.0102 s⁻¹
- koff [23]: 0.00672 s⁻¹
